The values below come from patent US20210040175A1.

The target of the experiment is human CD20 (human) (UniProt P11836). In words: cell-based or functional assay.
Sequence of UniProt P11836 (P11836 whole entry): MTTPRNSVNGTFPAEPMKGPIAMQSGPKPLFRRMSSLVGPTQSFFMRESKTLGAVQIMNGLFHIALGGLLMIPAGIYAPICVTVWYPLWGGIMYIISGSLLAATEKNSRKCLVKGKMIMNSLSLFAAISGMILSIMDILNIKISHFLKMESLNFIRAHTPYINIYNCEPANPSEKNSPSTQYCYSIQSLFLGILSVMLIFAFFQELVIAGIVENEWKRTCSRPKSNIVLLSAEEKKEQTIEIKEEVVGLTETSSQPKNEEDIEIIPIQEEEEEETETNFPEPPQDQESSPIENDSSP

With Rituximab (antibody), the ADCC by haNK cells for SUP-B15^CD20 at the highest 10:1 ET ratio worked out at 60%.
